One experiment concerns the target T1, CXCR4 (N119A) (Homo sapiens, UniProt P61073, N119A).
T1 construct: expressed in transfected cells; host or cells: HEK293T, transient; membranes in A4, whole cells in A5
In words: Competition binding with [125I]-CXCL12 on constitutively active CXCR4 mutant N119A. Conditions: competition with [125I]-CXCL12 (40 pM). The method, then: Competition binding assay—Periplasmic fractions were screened in a competition binding assay using membranes from HEK293T cells transiently expressing CXCR4. In short, periplasmic extracts (1:10) or ligands were pre-incubated with membranes in binding buffer (50 mM HEPES (pH 7.4), 1 mM CaCl2, 5 mM MgCl2, 100 mM NaCl, 0.5% bovine serum albumin) supplemented with 0.5% BSA for 1 h at 22° C. before the addition of [^125I]-CXCL12 (40 pM) or [^125I]-238D2 (3 nM) or [^125I]-238D4 (3 nM) for additional 2 h at 22° C. […] Membranes were then harvested over polyethylenimine (0.5%)-treated Whatman GF/C filter plates and washed three times with ice cold binding buffer containing 500 mM NaCl. Plates were counted by liquid scintillation.
CXCR4—specific Nanobodies behave as neutral antagonists or inverse agonists on constitutively active mutants of CXCR4—The CXCR4—specific monovalent Nanobodies 238D2 and 238D4 as well as their bivalent fusion products L3 and L8 were investigated on the constitutively active CXCR4 mutant N119A (equivalent to N3.35A in the Ballestros-Weinstein numbering of class A GPCRs). […] Despite of the large number of CAMs for other class A GPCRs and further efforts to generate additional CAMs for CXCR4 (Berchiche et al., 2007), the N119 mutants of CXCR4 remain the only known CAMs for this receptor. […] Methods: Preparation of membranes and competition binding experiments with [125I]-CXCL12 (40 pM) were performed as described before for wild type CXCR4 (vide supra).

Another experiment concerns the target T2, CXCR4 mutant 2 (V196E) (Homo sapiens, UniProt P61073, V196E).
T2 construct: expressed in transfected cells; host or cells: Hek293T, transient, pcDNA3.1
In words: Footprint assay, flow cytometry binding to CXCR4 V196E on Hek293T cells. To be noted: Myc-tag detection, 10 nM and 100 nM Nanobody, average n = 3, relative to hCXCR4. The text has this: Based on the data from example 1.8, we introduced 3 single point-mutations in ECL2 of CXCR4 that allowed to discriminate between 238D2 and 238D4-like epitopes: V196E (specifically disturbing D2 binding)-SEQ ID NO: 20, D187V (specifically disturbing D4 binding)-SEQ ID NO: 21, F189V (disturbing binding of both D2 and D4)-SEQ ID NO: 19. […] For the epitope mapping, transient transfections of the three CXCR4 mutants and wildtype human CXCR4 in the pcDNA3.1 vector were done in Hek293T cells, after which Nanobody binding of different families was assessed by flow cytometry using detection of the Myc-tag, followed by secondary anti-mouse PE. Two concentrations of Nanobody were tested, 10 nM and 100 nM, and experiment was repeated with essentially the same results. Binding of the Nanobodies to HEK293T hCXCR4 cells was used for normalization using the following formulas:
Percentage of binding to the mutant receptors was calculated for each Nanobody concentration, and a position was considered as critical when less than 25% residual binding (average of n=3) was observed (Table C-5). […] Nanobodies could be grouped according to their different binding patterns, not only in “238D2-like” or “epitope A binders” and “238D4-like” or “epitope B binders” but also into other new groups.

In experiment [1] the target is CXCR4 mutation library clone 3622 (E277G) (human, UniProt P61073 1-352). In words: immunofluorescence on HEK-293T expressing the clone, normalised to wild type.

“Also recorded” adds a separate entry of the source.

T1 sequence (P61073 whole entry N119A): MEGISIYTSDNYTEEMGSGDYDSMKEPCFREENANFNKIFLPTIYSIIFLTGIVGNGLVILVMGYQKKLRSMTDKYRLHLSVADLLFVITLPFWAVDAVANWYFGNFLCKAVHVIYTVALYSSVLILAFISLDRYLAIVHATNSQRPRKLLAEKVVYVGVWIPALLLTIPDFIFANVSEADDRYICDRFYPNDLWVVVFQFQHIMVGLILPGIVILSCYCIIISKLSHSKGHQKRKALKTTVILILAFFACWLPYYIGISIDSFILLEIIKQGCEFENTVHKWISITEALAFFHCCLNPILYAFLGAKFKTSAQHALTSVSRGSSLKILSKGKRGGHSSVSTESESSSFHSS
T2 sequence (P61073 whole entry V196E): as the sequence (P61073 whole entry N119A) above, with A119N, V196E counted along it

B1: 238D2: monovalent anti CXCR4 Nanobody, SEQ ID NO: 2 (protein)
VHH: EVQLVESGGGLVQTGGSLRLSCAASGFTFSSYAMSWVRQAPGKGLEWVSGIKSSGDSTRYAGSVKGRFTISRDNAKNMLYLQMYSLKPEDTAVYYCAKSRVSRTGLYTYDNRGQGTQVTVSS
modifications: Nanobody
For the molecule B1, the “binding affinities to CXCR4 (N119A) compared to wild type (in words)” value with CXCR4 (N119A) is “somewhat less compared to the wild type receptor”. Also, the “binding to CXCR4 (N119A) (in words)” value with CXCR4 (N119A) (highest nanobody test concentration 2 μM) is given as “able to bind to CXCR4 (N119A); also recorded: clearly bind to the mutant receptor”. Also, in the experiment with CXCR4 mutant 2 (V196E), the “Hek293T V196E binding” value is “− (<=25% binding to mutant rel. to hCXCR4)”.

B2: Nanobody 238D4 (VHH)
VHH: EVQLMESGGGLVQAGGSLRLSCAASGRTFNNYAMGWFRRAPGKEREFVAAITRSGVRSGVSAIYGDSVKDRFTISRDNAKNTLYLQMNSLKPEDTAVYTCAASAIGSGALRRFEYDYSGQGTQVTVSS
In the case of B2, the “% immunofluorescence” value in experiment [1] came to 52.5%.

These data come from patent US20110117113A1, “IMMUNOGLOBULIN SINGLE VARIABLE DOMAIN DIRECTED AGAINST HUMAN CXCR4 AND OTHER CELL ASSOCIATED PROTEINS AND METHODS TO GENERATE THEM” (priority 2009, published 2011).
